Consider three molecules from patent US20210095032A1 (SALUBRIS CHENGDU BIOTECH, published 2021).

Experiment [1] deals with T1, human PD-1 on PD-1 Effector Cell Line (Genscript, GS-J2/PD-1) (human, UniProt Q15116 25-288). Description: cell-based or functional assay.
In experiment [2] the target is T2, biotin-labeled human PD-1 Fc protein (human, biotin-labeled (site not stated)).
T2 construct: also called PD-1-Fc-biotin
Description: competition ELISA, antibody + biotin human PD-1 Fc on coated Nivolumab (competitor Nivolumab). As for the experimental part: (§1) The next day, plates were washed with wash buffer, and blocked with 5% non-fatty milk in PBST for 2 hours at 37° C. […] Plates were finally washed using wash buffer. TMB was added and the reaction was stopped using 1M H₂SO₄, and the absorbance was read at 450 nm. Data were analyzed using Graphpad Prism software and IC₅₀ values were reported.
On the technique in general: An ELISA detects its analyte on a solid surface through an enzyme-linked reagent.

Experiment [3] concerns the target T2, biotin-labeled human PD-1 Fc protein. Description: capture ELISA, antibody captured on plate, biotin-labeled human PD-1 Fc in solution. As to the method: (§2) Plates were washed 4 times with wash buffer (PBS+0.05% Tween-20, PBST) and then blocked with 200 μl/well blocking buffer (5% w/v non-fatty milk in PBST) for 2 hours at 37° C. […] After a final wash, plates were incubated with 100 μl/well ELISA substrate TMB (Innoreagents). The reaction was stopped in 15 minutes at 25° C. with 50 μl/well 1M H₂SO₄, and the absorbance was read at 450 nm. Data were analyzed using Graphpad Prism software and EC₅₀ values were reported.

Experiment [4] concerns the target T1, human PD-1 on PD-1 Effector Cell Line …. Briefly: cell-based or functional assay. The source holds these as a separate data set.
Experiment [5] addresses T2, biotin-labeled human PD-1 Fc protein. Briefly: competition ELISA, antibody + biotin human PD-1-Fc on coated human PD-L1-Fc (competitor PD-L1-Fc). As to the method:
(§3) The next day, plates were washed with wash buffer (PBS+0.05% Tween-20, PBST), and blocked with 5% non-fatty milk in PBST for 2 hours at 37° C. Plates were then washed again using wash buffer.
(§4) After incubation at 37° C. for 40 minutes, plates were washed for 4 times using wash buffer. […] Plates were washed again using wash buffer. Finally, TMB was added and the reaction was stopped using 1M H₂SO₄, and the absorbance was read at 450 nm. Data were analyzed using Graphpad Prism software and IC₅₀ values were reported.

Experiment [6] has the same target. The description is as above. As to the method: as §3, §4
This is another data set of the same source.

Experiment [7] deals with T1, human PD-1 on PD-1 Effector Cell Line …. Briefly: cell-based or functional assay. The source holds these as a separate data set.
Experiment [8] addresses T2, biotin-labeled human PD-1 Fc protein. Briefly: competition ELISA, antibody + biotin human PD-1 Fc on coated Nivolumab (competitor Nivolumab). As for the experimental part: as §1
The source holds these as a separate data set.

Experiment [9] shares this target. Briefly: capture ELISA, antibody captured on plate, biotin-labeled human PD-1 Fc in solution. As to the method:
as §2
This is another data set of the same source.

Experiment [10] has as its target T3, recombinant human PD-1-his (Sino biological, #10377-H08H) (human, UniProt Q15116 25-167).
T3 construct: Bought protein; also called Human PD-1-his protein; not shown: his tag
Briefly: SPR (Biacore T200), antibody captured, PD-1-his flowed, 1:1 Langmuir fit. From the text: (§5) Briefly, goat anti-mouse IgG (GE healthcare, Cat #BR100839, Human Antibody Capture Kit) was covalently linked to a CMS chip (carboxy methyl dextran coated chip) via primary amines, using a standard amine coupling kit (GE healthcare, Pittsburgh, Pa., USA) provided by Biacore. Un-reacted moieties on the biosensor surface were blocked with ethanolamine. […] Then, recombinant human PD-1-his (Sino biological, #10377-H08H) or cynomolgus monkey PD-1-his protein (Acro biosystems, #PD-1-05223) in HBS EP buffer (provided by Biacore) was flowed onto the chip at a flow rate of 30 μL/min. The antigen-antibody association kinetics was followed for 2 minutes and the dissociation kinetics was followed for 10 minutes. The association and dissociation curves were fit to a 1:1 Langmuir binding model using BIA evaluation software.

The target in experiment [11] is T4, cynomolgus monkey PD-1-his protein (Acro biosystems, #PD-1-05223) (cynomolgus monkey, UniProt B0LAJ3 25-170).
T4 construct: Bought protein; also called Cynomolgus PD-1; Cynomolgus PD1
Described as above.
Description: as §5

Experiment [12] deals with T4, cynomolgus monkey PD-1-his protein …. Description: SPR (Biacore), antibody captured, cynomolgus PD-1-his flowed.
Description: as §5
In general terms: Surface plasmon resonance follows binding to a sensor surface in real time, without labels.

In experiment [13] the target is T2, biotin-labeled human PD-1 Fc protein. Description: competition ELISA, antibody + biotin human PD-1 Fc on coated Nivolumab (competitor Nivolumab). As to the method:
as §1
This is another data set of the same source.

Experiment [14] shares this target. Briefly: competition ELISA, antibody + biotin human PD-1-Fc on coated human PD-L1-Fc (competitor PD-L1-Fc). As for the experimental part: as §3, §4
The source holds these as a separate data set.

Experiment [15] shares this target. Briefly: capture ELISA, antibody captured on plate, biotin-labeled human PD-1 Fc in solution. As to the method: as §2
The source holds these as a separate data set.

For experiment [16], the target named is T3, recombinant human PD-1-his (Sino …). Briefly: SPR (Biacore), antibody captured, human PD-1-his flowed.
Description: as §5

Experiment [17] addresses T2, biotin-labeled human PD-1 Fc protein. Description: capture ELISA, antibody captured on plate, biotin-labeled human PD-1 Fc in solution. As to the method: as §2
The source holds these as a separate data set.

The target is the same in experiment [18]. Briefly: capture ELISA.
Experiment [19] has the same target. Description: capture ELISA, antibody captured on plate, biotin-labeled human PD-1 Fc in solution. As to the method: as §2
This is another data set of the same source.

For experiment [20] the target is unchanged. The experiment is described as above. As for the experimental part: as §2
The source holds these as a separate data set.

The target is the same in experiment [21]. The description is as above. As to the method: as §2
This is another data set of the same source.

Read-outs that look alike come from different tables or passages of the source.

B1: mouse anti-PD-1 monoclonal antibody D2A4 (antibody, V domains shown)
VH: EVKLVESGGGLVKPGGSLKLSCAASGFTFSSYTMSWVRQTPAKRLEWVATISGGGSNTYYPDSVKGRFTISRDNARNTLYLQMSSLRSEDTAMYYCARQAFYSNYWYFDVWGAGTTVTVSS
VL: DIQMTQSPASQSASLGESVTITCLASQTIGTWLAWYQQTPGKSPQLLIYAATSLADGVPSRFSGSGSGTKFSFKISSLQAEDFASYYCQQVSSIPWTFGGGTKLEIR
notes: Mouse antibody purified from a hybridoma; also called Mouse D2A4; mouse D2A4
As usually defined, the IC50 is the concentration that gives 50% inhibition. For orientation: EC50 means the midpoint of the concentration-response curve. The term Kd denotes the constant that tells how readily two partners part at equilibrium. What is called koff is the rate constant with which the complex falls apart. Usually kon stands for the rate constant with which the complex forms. On to B1, for which the “Cell-based functional reporter assay (IC50, nM)” value in experiment [1] worked out at 6.18 nM. Also, the IC50 in experiment [2] stood at 0.33 nM; in experiment [5] it was 0.17 nM; in [6] it was 1.51 nM; in experiment [8], 0.33 nM; in experiment [13] it was 2.22 nM; in experiment [14], 1.51 nM. Moreover, the EC50 in experiment [3] was 0.19 nM; in [9] it was 0.281 ng/mL; in experiment [15], 0.13 nM; in experiment [17] it was 0.13 nM. The “Cell-based functional assay (EC50, nM)” value in experiment [4] turned out to be 6.18 nM. Further, the “Reporter Activation (EC50, nM), human PD-1 cell (NFAT-luc)/human PD-L1 cell” value in experiment [7] worked out at 8.1 nM. For the same molecule, the Kd in experiment [10] turned out to be 2.55 nM; in [11], 6.57 nM; in experiment [12], 6.57 nM; in experiment [16], 2.55 nM. Further, the koff worked out at 0.000401 s⁻¹ in experiment [10] and 0.000793 s⁻¹ in [11]. The kon in [10] is 157000 M⁻¹ s⁻¹; in experiment [11], 121000 M⁻¹ s⁻¹.

B2: huD2H3-V13 (antibody, human IgG1, kappa, V domains shown)
VH: EVQLVQSGAEVKKPGSSVKVSCKSSGYTFTNYWMHWVRQAPGQGLEWIGAIFPRNSETNYNQKFKARATLTADTSTSTAYMELSSLRSEDTAVYFCTRNRYGLDYWGQGTLVTVSS
VL: DIVMTQSPDSLAVSLGERATINCRASESVSLHGTRLMHWYQQKPGQPPKLLIYLGSNLESGVPDRFSGSGSGTDFTLTISSLQAEDVAVYYCQQSIEDPWTFGQGTKLEIKR
notes: Humanized D2H3, human IgG1/kappa; No EC50 is printed for this variant; it appears only in the sentences about the group
As to B2, the binding result in experiment [18] was “binds”.

B3: mouse anti-PD-1 monoclonal antibody D2H3 (antibody, V domains shown)
VH: EVQLQQSGTVLARPGASVKMSCKSSGYTFTNYWMHWVKQRPGQGLEWIGAIFPRNSETNYNQKFKAKAKLTAVTSASTAYMEVSSLTSEDSAVYFCTRNRYGLDYWGQGTSVTVSS
VL: DIVLTQSPGFLAVSLGQRATISCRASESVSLHGTRLMHWYHQKPGQPPKLLISLGSNLESGVPARFSGSGSETDFTLNIHPVEEEDAATYFCQQSIEDPWTFGGGTKLEIK
notes: Mouse antibody purified from a hybridoma; also called Mouse D2H3; mouse D2H3
For B3, in experiment [1], the “Cell-based functional reporter assay (IC50, nM)” value was found to be 8.48 nM. The IC50 came out at 0.21 nM in [2]; 0.19 nM in [5]; 0.89 nM in experiment [6]; 0.21 nM in experiment [8]; 0.76 nM in experiment [13]; 0.89 nM in experiment [14]. Besides, the EC50 in experiment [3] is 0.15 nM; in experiment [19], 0.229 ng/mL; in experiment [20], 0.18 ng/mL; in experiment [21] it was 0.388 ng/mL; in experiment [15], 0.17 nM; in [17], 0.17 nM. For the same molecule, the “Cell-based functional assay (EC50, nM)” value in experiment [4] was found to be 8.48 nM. Further, the “Reporter Activation (EC50, nM), human PD-1 cell (NFAT-luc)/human PD-L1 cell” value in experiment [7] is 3.02 nM. The Kd in experiment [10] was found to be 0.373 nM; in experiment [11], 1.46 nM; in experiment [12] it was 1.46 nM; in experiment [16], 0.373 nM. Also, the koff in experiment [10] came to 0.000122 s⁻¹; in experiment [11] it was 0.000308 s⁻¹. In addition, the kon was determined as 326000 M⁻¹ s⁻¹ in experiment [10] and 211000 M⁻¹ s⁻¹ in [11].
